Test results published in patent US20220153847A1 (Chugai, published 2022).

Biological target: HLA-DQ2.5/33mer gliadin peptide on IHW9088 cells (human)
Assay: cell-based or functional assay

B1: DQN0139bb//IC17 (bispecific antibody, human IgG1, kappa)
heavy 1: QSLEESGGRLVTPGTALTLTCTVSGFSLSSYAMGWVRQAPGKGLEYIGWTSPGDSAYYASWTKGRFTISRTSTTVELKITSPTTEDTATYFCARDAAYIGHWAFNLWGPGTLVTVSSASTKGPSVFPLAPSSKSTSGGTAALGCLVKDYFPEPVTVSWNSGALTSGVHTFPAVLQSSGLYSLSSVVTVPSSSLGTQTYICNVNHKPSNTKVDKRVEPKSCDKTHTCPPCPAPELRRGPSVFLFPPKPKDTLMISRTPEVTCVVVDVSHEDPEVKFNWYVDGVEVHNAKTKPREEQYNSTYRVVSVLTVLHQDWLNGKEYKCKVSNKALPAPIEKTISKAKGQPREPQVYTLPPSREEMTKNQVSLTCLVKGFYPSDIAVEWESNGQPENNYKTTPPYLDSDGSFFLYSKLTVDKSRWQQGNVFSCSVMHEALHNHYTQESLSLSP
light 1: DVVMTQTPASVSAPVGGTVTINCQASESIYSNLAWYQQKPGQPPKLLIYGASTLESGVPSRVKGSGYGTQFTLTISDLECADAATYYCQQYYGSSSTAFTFGGGTKVEIKRTVAAPSVFIFPPSDEQLKSGTASVVCLLNNFYPREAKVQWKVDNALQSGNSQESVTEQDSKDCTYSLSSTLTLSKADYEKHKVYACEVTHQGLSSPVTKSFNRGEC
heavy 2: QVQLQQSGPQLVRPGASVKISCKASGYSFTSYWMHWVNQRPGQGLEWIGMIDPSYSETRLNQKFKDKATLTVDKSSSTAYMQLSSPTSEDSAVYYCALYGNYFDYWGQGTTLTVSSASTKGPSVFPLAPSSKSTSGGTAALGCLVKDYFPEPVTVSWNSGALTSGVHTFPAVLQSSGLYSLSSVVTVPSSSLGTQTYICNVNHKPSNTKVDKRVEPKSCDKTHTCPPCPAPELRRGPSVFLFPPKPKDTLMISRTPEVTCVVVDVSHEDPEVKFNWYVDGVEVHNAKTKPREEQYNSTYRVVSVLTVLHQDWLNGKEYKCKVSNKALPAPIEKTISKAKGQPREPQVYTLPPSRKEMTKNQVSLTCLVKGFYPSDIAVEWESNGQPENNYKTTPPYLDSDGSFFLYSKLTVDKSRWQQGNVFSCSVMHEALHNHYTQKSLSLSP
light 2: DIQMTQSSSSFSVSLGDRVTITCKASEDIYNRLAWYQQKPGNAPRLLISGATSLETGVPSRFSGSGSGKDYTLSITSLQTEDVATYYCQQYWSTPYTFGGGTKLEVKRTVAAPSVFIFPPSDEQLKSGTASVVCLLNNFYPREAKVQWKVDNALQSGNSQESVTEQDSKDSTYSLSSTLTLSKADYEKHKVYACEVTHQGLSSPVTKSFNRGEC
Q: How did the “IC50 (read off the curve)” value turn out when B1 was run?
A: The value was ~0.4 microgram/mL.
